This is an account of results in patent US20210347873A1 (SHANGHAI PHARMAEXPLORER, published 2021).

Assay [1] has as its target T1, biotinylated hBLyS-ECD (human, UniProt Q9Y275 134-285, biotinylated with Biotin-X-X-NHS (molar ratio 7:1); sites not stated).
T1 construct: also called biotinylated immunogen; BLyS protein
The experiment in a line: blocking ELISA: biotinylated hBLyS-ECD on coated BAFF R, antibody 0.032 nM. The procedure: (§1) BAFF R (purchased from R & D Systems) was aliquoted into 96-well ELISA plate at 50 ng per well, and the plate was sealed with plastic film and incubated overnight at 4° C. On the next day the plate was washed four times with the plate washing buffer [PBS buffer containing 0.05% (v/v) Tween20] and added with blocking solution [PBS buffer containing 0.05% (v/v) Tween20 and 1% (w/w) BSA], then blocked for 1 hour at room temperature. The blocking solution was removed and 50 μL per well of the lead antibodies prepared in Embodiment 1 and 2 were added followed by the addition of 50 μL per well of the biotinylated hBLyS-ECD prepared in Embodiment 2. After incubation for 1 hour at 37° C., the plate was washed four times with the plate washing buffer [PBS buffer containing 0.05% (v/v) Tween20]. 100 μL per well of HRP-labeled (horseradish peroxidase) avidin (purchased from Sigma) was added and incubated at 37° C. for 1 hour. The plate was then washed four times with the plate washing buffer [PBS buffer containing 0.05% (v/v) Tween20]. 100 μL of TMB substrate was aliquoted into each well and after incubation for 5 minutes at room temperature, then 100 μL of stop solution (1.0 N HCl) was aliquoted into each well. A₄₅₀ₙₘ values were read with an ELISA plate reader (SpectraMax 384plus, Molecular Device) and the results were shown in FIGS. 9A-9B and Table 15. It was shown in Table 15 that the binding of BLyS protein to its receptor BAFF R could be blocked by the BLyS antibody.
Target sequence in this assay (Q9Y275 134-285): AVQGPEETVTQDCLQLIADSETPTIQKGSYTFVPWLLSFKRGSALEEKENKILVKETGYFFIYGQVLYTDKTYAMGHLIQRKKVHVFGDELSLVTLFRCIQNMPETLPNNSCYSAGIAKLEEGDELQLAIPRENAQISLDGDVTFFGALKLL

Assay [2] concerns the target T1, biotinylated hBLyS-ECD. The experiment in a line: blocking ELISA: biotinylated hBLyS-ECD on coated BAFF R, antibody 4 nM. The procedure: as §1
(In general: In an ELISA, binding on a coated surface is turned into a signal by an enzyme label.)
Target sequence in this assay (Q9Y275 134-285): as above

Assay [3] deals with T1, biotinylated hBLyS-ECD. The experiment in a line: blocking ELISA: biotinylated hBLyS-ECD on coated BAFF R, antibody 0.8 nM. How it is done:
as §1
Target sequence in this assay (Q9Y275 134-285): as above

Assay [4] deals with T2, biotinylated hBLyS-ECD (human, UniProt Q9Y275 134-285, biotinylated with Biotin-X-X-NHS (molar ratio 7:1), sites not stated).
T2 construct: The hBLyS-ECD of Embodiment 1 after biotinylation (Embodiment 2); also called biotinylated immunogen; BLyS protein; not shown: His tag of the pCPC vector
Kind of assay: ELISA, biotinylated hBLyS-ECD captured on streptavidin; antibody 13.3 nM. How it is done:
Streptavidin was first diluted to a final concentration of 1.0 μg/mL with PBS, and then 50 μL of diluted streptavidin per well was aliquoted into 96-well ELISA plate, which was subsequently sealed with plastic film and incubated at 4° C. overnight. On the next day the plate was washed four times with the plate washing buffer [PBS buffer containing 0.05% (v/v) Tween20] and added with the blocking solution [PBS buffer containing 0.05% (v/v) Tween20 and 1% (w/w) BSA] and blocked for 2 hours at 37° C. The blocking solution was removed, the biotinylated hBLyS-ECD prepared in Embodiment 2 was diluted with PBS to a final concentration of 50 ng/mL and then aliquoted into the 96-well ELISA plate at 50 μL per well and incubated for 1 hour at 37° C. After rinsing the plate four times with the plate washing buffer [PBS buffer containing 0.05% (v/v) Tween20], 100 μl of the purified lead antibody harvested in Embodiment 1 and 2 was pipetted into each well. After incubation for 1 hour at 37° C., the plate was rinsed four times with the plate washing buffer [PBS buffer containing 0.05% (v/v) Tween20]. HRP-labeled (horseradish peroxidase) secondary antibody (purchased from Sigma) was added in and incubated at 37° C. for 1 hour. The plate was then rinsed four times with the plate washing buffer [PBS buffer containing 0.05% (v/v) Tween20]. 100 μL of TMB substrate was aliquoted into each well and after incubation for 5 minutes at room temperature, 100 μL of stop solution (1.0 N HCl) was aliquoted into each well. A₄₅₀ₙₘ values were read via an ELISA plate reader (SpectraMax M5e purchased from Molecular Devices) and the results were shown in FIGS. 5A-5B and Table 10.

Assay [5] deals with T1, biotinylated hBLyS-ECD. Kind of assay: competitive ELISA on biotinylated hBLyS-ECD; competitor 2-1G11. How it is done: (§2) The purified human BLyS antibody and hybridoma antibody were subjected to competitive enzyme-linked immunosorbent assay and the epitopes binding by different antibodies were analyzed.
(§3) Purified BLyS antibody was first diluted to a final concentration of 1.0 μg/mL with PBS, then aliquoted into a 96-well ELISA plate at 50 μL per well, and the plate was subsequently sealed with plastic film and incubated at 4° C. overnight. On the next day the plate was rinsed four times with the plate washing buffer [PBS buffer containing 0.05% (v/v) Tween20] and mixed with blocking solution [PBS buffer containing 0.05% (v/v) Tween20 and 1% (w/w) BSA], and then blocked at 37° C. for 1 hour. The blocking solution was removed, and the competitive antibody and IgG control were diluted to a final concentration of 40 μg/mL with PBS and then aliquoted into the 96-well ELISA plate at 50 μL per well. The biotinylated hBLyS-ECD was then diluted with PBS to a final concentration of 2 ng/mL and pipetted into the 96-well ELISA plate at 50 μL per well. The final concentration of competitive antibody and hBLyS-ECD was 20 μg/mL and 1 ng/mL, respectively. After incubation at 37° C. for 1 hour, the plate was rinsed four times with the plate washing buffer [PBS buffer containing 0.05% (v/v) Tween20]. 100 μL per well of HRP-labeled (horseradish peroxidase) streptavidin (purchased from Sigma) was added into the plate and the plate was incubated at 37° C. for 1 hour. The plate was then washed four times with the plate washing buffer [PBS buffer containing 0.05% (v/v) Tween20]. 100 μL of TMB substrate was aliquoted into each well and after incubation at room temperature for 5 minutes, 100 μL of stop solution (1.0 N HCl) was aliquoted into each well. A₄₅₀ₙₘ values were read by an ELISA plate reader (SpectraMax M5e, purchased from Molecular Device) and the results were shown in Tables 18A-18B. […] The data shown in the table is the inhibitory rate (%) of the binding level of the original antibody to hBLyS-ECD after addition of the competitive antibody.
Target sequence in this assay (Q9Y275 134-285): as above

The target of assay [6] is T1, biotinylated hBLyS-ECD. The experiment in a line: competitive ELISA on biotinylated hBLyS-ECD; competitor L1D12. The procedure:
as §2, §3

T2 sequence (Q9Y275 134-285): as above

B1: 8E7D9C7F5 (antibody, V domains shown)
VH: QVQLQQSGVELARPGASVKLSCKASGYTFTSYGISWVKQRTGQALEWIGEIYPRSGNTYYNEKFKGKATLTADKSSSTAYMELRSLTSEDSAVYFCARSGPITTLVATDYGMDYWGQGTSVTVSS
VL: DIVLTQSPASLAVSLGQRATISCRASKSVSTSSYSYMHWYQQKPGQPPKLLIKFASNLESGVPARFSGSGSGTDFTLNIHPVEEEDAATYYCQHSREFPYTFGGGTKLEIK
notes: Mouse hybridoma monoclonal antibody purified on Protein G
Take B1: the OD450 nm turned out to be 1.05 OD450 nm with biotinylated hBLyS-ECD [1], 0.173 OD450 nm in the assay with biotinylated hBLyS-ECD [2] and 0.294 OD450 nm in the assay with biotinylated hBLyS-ECD [3].

B2: 97A3C2H4 (antibody, V domains shown)
VH: EVKLVESGGGLVQPGGSLKLSCAASGFTFSTYTMSWVRQTPEKRLEWVAYISYGGGSTSYPDTVKGRFTISRDNAKNTLYLQMSSLKSEDTAIYYCTRHVTVVENSMDYWGQGTSVTVSS
VL: DILLTQSPDILSVSPGERVSFSCRASQSIGTSIHWYQQRTNGSPRLLIKYVSESFSGTPSRFSGSGSGTAFTLTINSVESEDIADYYCQQTHSWPWTFGGGTKLEIK
notes: as for B1
For B2, the results for the OD450 nm in the assay with biotinylated hBLyS-ECD [1], in the assay with biotinylated hBLyS-ECD [2] and with biotinylated hBLyS-ECD [3] were 1.12 OD450 nm, 0.208 OD450 nm and 0.424 OD450 nm, respectively.

B3: 97A3C2H4 (antibody, V domains shown)
VH: EVKLVESGGGLVQPGGSLKLSCAASGFTFSTYTMSWVRQTPEKRLEWVAYISYGGGSTSYPDTVKGRFTISRDNAKNTLYLQMSSLKSEDTAIYYCTRHVTVVENSMDYWGQGTSVTVSS
VL: DILLTQSPDILSVSPGERVSFSCRASQSIGTSIHWYQQRTNGSPRLLIKYVSESFSGTPSRFSGSGSGTAFTLTINSVESEDIADYYCQQTHSWPWTFGGGTKLEIK
notes: Mouse hybridoma antibody purified on Protein G
In the case of B3, in the assay with biotinylated hBLyS-ECD [4], the OD450 nm was 2.82.

B4: L1D12 (antibody, V domains shown)
VH: QVQLVQSGGGLVQPGGSLRLSCAASGFTVSSNYMSWVRQAPGKGLEWVSVIYSGGSTYYADSVKGRFTISRDNSKNTLYLQMNSLRAEDTAVYYCARGFHDILTGYGMDVWGQGTTVTVSS
VL: SSELTQDPAVSVALGQTVRITCQGDSLRNYYAGWYQQKPGQAPVLVIYGKNNRPSGIPDRFSGSSSGNTASLTITGTQAEDEADYYCSSRDNSGTHLVEFGGGTKLTVL
notes: From a human naive scFv phage library; also called human BLyS antibody L1D12; LID12
B4: the “inhibitory rate (%)” value with biotinylated hBLyS-ECD [5] and in the assay with biotinylated hBLyS-ECD [6] was 94% throughout.

B5: L1D12 (antibody, human IgG1, V domains shown)
VH: QVQLVQSGGGLVQPGGSLRLSCAASGFTVSSNYMSWVRQAPGKGLEWVSVIYSGGSTYYADSVKGRFTISRDNSKNTLYLQMNSLRAEDTAVYYCARGFHDILTGYGMDVWGQGTTVTVSS
VL: SSELTQDPAVSVALGQTVRITCQGDSLRNYYAGWYQQKPGQAPVLVIYGKNNRPSGIPDRFSGSSSGNTASLTITGTQAEDEADYYCSSRDNSGTHLVEFGGGTKLTVL
notes: also called LID12
As to B5, the OD450 nm with biotinylated hBLyS-ECD [4] was 1.61.

B6: 111D10D6G3 (antibody, V domains shown)
VH: QVQLQQPGAELVKPGASVKMSCKASGYTFTRHWITWVKQRPGQGLEWIGDIFPGSGSINYNEKFKSEATLTVEKSSSTAYMQLSSLTSEDSAVYYCARGDVDVWGTGTTVTVSS
VL: DIQMTQSPSSLSASLGERVSLTCRASQEIRGYLSWLQQKPNGTIKRLIYAASTLDSGVPKRFSATRSGSDFSLTISSLESEDFADYYCLQYASYPFTFGSGTKLEIK
notes: as for B1
On to B6, for which the OD450 nm in the assay with biotinylated hBLyS-ECD [1] was 1.14 OD450 nm; with biotinylated hBLyS-ECD [2], 0.67 OD450 nm; with biotinylated hBLyS-ECD [3] it was 0.717 OD450 nm.

B7: 111D10D6G3 (antibody, V domains shown)
VH: QVQLQQPGAELVKPGASVKMSCKASGYTFTRHWITWVKQRPGQGLEWIGDIFPGSGSINYNEKFKSEATLTVEKSSSTAYMQLSSLTSEDSAVYYCARGDVDVWGTGTTVTVSS
VL: DIQMTQSPSSLSASLGERVSLTCRASQEIRGYLSWLQQKPNGTIKRLIYAASTLDSGVPKRFSATRSGSDFSLTISSLESEDFADYYCLQYASYPFTFGSGTKLEIK
notes: as for B3
For the molecule B7, in the assay with biotinylated hBLyS-ECD [4], the OD450 nm was found to be 1.78.

B8: 2-1G11 (antibody, V domains shown)
VH: EVQLVESRGGVVQPGRSLRLSCAASGFTFSSYGMHWVRQAPGKGLEWVAVISYDGSNKYYADSVKGRFTISRDNSKNTLYLQMNSLRAEDAAVYYCARDRVDILTGYSIYGMDVWGQGTTVTVSS
VL: EIVMTQSPATLSLSPGERATLSCRASQSVSSYLAWYQQKPGQAPRLLIYDASKRATGIPARFSGSGSGTDFTLTISSLEPEDFAVYYCQQRSNWPLTFGGGTKVEIK
notes: From a human naive scFv phage library; also called human BLyS antibody 2-1G11
For B8, the entries for the “inhibitory rate (%)” value with biotinylated hBLyS-ECD [5] and with biotinylated hBLyS-ECD [6] were 82% and 91%, respectively.

B9: L9G7 (antibody, V domains shown)
VH: QIQLVQSGAEVKKPGASVKVSCKASGYTFTSYGISWVRQAPGQGLEWMGWISAYNGNTNYAQKLQGRVTMTTDTSTSTAYMELRSLRSDDTAVYYCARTYYDILTGYYYYGMDVWGQGTTVTVSS
VL: EIVLTQSPGTLSLSPGERATLSCRTSQSVDTYLAWYQQKPGQAPRLLIYDASNRATGIPARFSGSGSGTDFTLTISSLEPEDFAVYYCQQRSNWPLTFGGGTKVEIK
notes: From a human naive scFv phage library; also called human BLyS antibody L9G7
Turning to B9, the “inhibitory rate (%)” value in the assay with biotinylated hBLyS-ECD [5] came to 96%; with biotinylated hBLyS-ECD [6] it was 97%.

B10: L9G7 (antibody, human IgG1, V domains shown)
VH: QIQLVQSGAEVKKPGASVKVSCKASGYTFTSYGISWVRQAPGQGLEWMGWISAYNGNTNYAQKLQGRVTMTTDTSTSTAYMELRSLRSDDTAVYYCARTYYDILTGYYYYGMDVWGQGTTVTVSS
VL: EIVLTQSPGTLSLSPGERATLSCRTSQSVDTYLAWYQQKPGQAPRLLIYDASNRATGIPARFSGSGSGTDFTLTISSLEPEDFAVYYCQQRSNWPLTFGGGTKVEIK
In the case of B10, the OD450 nm in the assay with biotinylated hBLyS-ECD [4] came out at 1.6.
